B1: PRT-373 (protein)
chain: MSQTEDSESLQRLRDIEDFQAEKEKQNVVYTKWLDGVDVKDHDFRKIVDGNSAYYATPLLNGRGWYDINKDFNRDNDKCAAAVAANMFHYWLDRNRDNVDRFLRQNPEKHGIIELPDGQLKLSDFLNTYESDDGYRDKSKLFDFISENFNGPVWTDKLLDNYINGYAYNSKYGRTIEDSTKNTSKINFFKEVFNEKILTNNHSIRNQNEFSVLLIEALYTGKAIGLSYGPAGLRHGLGHIISVWGADLDADGNVVAIYVTDSDDKKLTIGDERVGLKRYKISTDDEGRLRLTAYEETHNTGGQVRGLWTLDTGKQAWADYFDKTEQTGTDQAEQ
B2: PRT-430 (protein)
chain: MSQTEDSESLQRLRDIEDFQAEKKKQNVVYTKWLDGVDVKDHDFRKIVDGNSAYYATPLLNGRGFYDINKDFNRDSDKCAAAVAANMFHYWLDRNRDNVDRFLRQNPEKHGIIELPDGQLKLSDFLNTYESDDGYRDKSKLFDFISNNFNGPVWTDKLLDNYINGYAYNYKYGRTIEDPTKNTSKINFFKEVFNEKILTNNHSIRNQNEFSVLLSEALYTGKAIGLSYGPAGLRHSLGHIISVWGADLDADGNVVAIYVTDSDDKKLTIGDERVGLKRYKISTDDEGRLRLTAYEETHNTGGQIRGLWTLDTGKQAWADYFDKTEQTGTDQAEQ
B3: PRT-432 (protein)
chain: MSQTEDSESLQRLRDIEDFQAEKKKQNVVYTKWLDGVDVKDHDFRKIVDGNIAYYATPLLNGRGFYDINKDFNRDSDKCAAAVAANMFHYWLDRNRDNVDRFLRQNPEKHGIIELPDGQLKLSDFLNTYESDDGYRDKSKLFDFISNNFNGPVWTDKLLDNYINGYAYNSKYGRTIEDPTKNTSKINFFKEVFNEKILTNNHSIRNQNEFSVLLSEALYTGKAIGLSYGPAGLRHSLGHIISVWGADLDADGNVVAIYVTDSDDKKLTIGDERVGLKRYKISTDDEGRLRLTAYEETHNTGGQIRGLWTLDTGKQAWADYFDKTEQTGTDQAEQ
B4: PRT-438 (protein)
chain: MSQTEDSESLQRLRDIEDFQAEKKKQNVVYTKWLDGVDVKDHDFRKIVDGNIAYYATPLLNGRGLYDINKDFNRDSDKCAAAVAANMFHYWLDRNRDNVDRFLRQNPEKHGIIELPDGQLKLSDFLNTYESDDGYRDKSKLFDFISNNFNGPVWTDKLLDNYINGYAYNYKYGRTIEDPTKNTSKINFFKEVFNEKILTNNHSIRNQNEFSVLLSEALYTGKAIGLSYGPAGLRHSLGHIISVWGADLDADGNVVAIYVTDSDDKKLTIGDERVGLKRYKISTDDEGRLRLTAYEETHNTGGQIRGLWTLDTGKQAWADYFDKTEQTGTDQAEQ
B5: PRT-445 (protein)
chain: MSQTEDSESLQRLRDIEDFQAEKKKQNVVYTKWLDGVDVKDHDFRKIVDGNIAYYATPLLNGRGFYDINKDFNRDSDKCAAAVAANMFHYWLDRNRDNVDRFLRQNPEKHGIIELPDGQLKLSDFLNTYESDDGYRDKSKLFDFISNNFNGPVWTDKLLDNYINGYAYNYKYGRTIEDSTKNTSKINFFKEVFNEKILTNNHSIRNQNEFSVLLSEALYTGKAIGLSYGPAGLRHSLGHIISVWGADLDADGNVVAIYVTDSDDKKLTIGDERVGLKRYKISTDDEGRLRLTAYEETHNTGGQIRGLWTLDTGKQAWADYFDKTEQTGTDQAEQ
B6: PRT-431 (protein)
chain: MSQTEDSESLQRLRDIEDFQAEKKKQNVVYTKWLDGVDVKDHDFRKIVDGNIAYYATPLLNGRGFYDINKDFNRDSDKCAAAVAANMFHYWLDRNRDNVDRFLRQNPEKHGIIELPDGQLKLSDFLNTYESDDGYRDKSKLFDFISENFNGPVWTDKLLDNYINGYAYNYKYGRTIEDPTKNTSKINFFKEVFNEKILTNNHSIRNQNEFSVLLSEALYTGKAIGLSYGPAGLRHSLGHIISVWGADLDADGNVVAIYVTDSDDKKLTIGDERVGLKRYKISTDDEGRLRLTAYEETHNTGGQIRGLWTLDTGKQAWADYFDKTEQTGTDQAEQ
B7: PRT-377 (protein)
chain: MVTSVWTKGVTPPTNFTYGEDVLHAPYVANQGWYDITKTFNGKDDLLCGAATAGNMLHWWFDQNKEQIENYLKKHPEKQKINFNGEQMFDVKEAIDTKDSQLDSKLFEYFLEKAFPYLSTKHLGVFPDHVIDMFINGYRLSLTNHGPTPVKRGSKDPRGGIFDAVFTRGDQSKLLTNRHDFKEKTLKEISDLIKQELTEGKALGISHTYANVRINHVINLWGADFDAEGNLEAIYVTDSDSNASIGMKKYFVGVNSNGKVAISAKEIEEDNIGAQVLGLFTLSTGQDIWNQTN
B8: PRT-577 (protein)
chain: MANQEIRYSKATPSTITSVWTKGVTPPENFIYNEDVLHAPYLANQGWYDITKTFNGKDDLLCGAATAGNMLHWWFDQNKEQIERYLKEHPEKQKINFNGEQMFDVKEAIDTKDSQTNSKLFEYFKDKAFPYLSTKHLGVFPDHVIDMFINGYRLSLTNHGPTPVKEQTKDPRGGIFDAVFTRGDQSKLLTSRHDFKEKTLNEISQLIKQELTEGKALGLSHTYANVRINHVINLWGADFNAEGNLEAIYVTDSDSNASIGMKKYYVGVNSAGKVAISAKEIEGDNIGAQVLGLFTLSTGQDIWQQTNLEHHHHHH
B9: PRT-585 (protein)
chain: MANQEIRYSKATPSTITSVWTKGVTPPEQFIYNEDVLHAPYIANQGWYDITKTFNGKDDLLCGAATAGNMLHWWFDQNKEQIERYLKKHPEKQKINFNGEQMFDVKEAIDTKDSQTNSKLFEYFKDKAFPYLSTKHLGVFPDHVIDMFINGYRLSLTNHGPTPVKEQTKDPRGGIFDAVFTRGDQSKLLTSRHDFKEKTLNEISDLIKQELTEGKALGLSHTYANVRINHVINLWGADFNAEGNLEAIYVTDSDSNASIGMKKYYVGVNSAGKVAISAKEIEGDNIGAQVLGLFTLSTGQDIWEQTNLEHHHHHH
B10: PRT-436 (protein)
chain: MSQTEDSESLQRLRDIEDFQAEKKDQNVVYTKWLDGVDVKDHDFRKIVDGNIAYYATPLLNGRGFYDINKDFNRDSDKCAAAVAANMFHYWLDRNRDNVDRFLRQNPEKHGIIELPDGQLKLSDFLNTYESDDGYRDKSKLFDFISNNFNGPVWTDKLLDNYINGYAYNYKYGRTIEDPTKNTSKINFFKEVFNEKILTNNHSIRNQNEFSVLLSEALYTGKAIGLSYGPAGLRHSLGHIISVWGADLDADGNVVAIYVTDSDDKKLTIGDERVGLKRYKISTDDEGRLRLTAYEETHNTGGQIRGLWTLDTGKQAWADYFDKTEQTGTDQAEQ
B11: PRT-441 (protein)
chain: MSQTEDSESLQRLRDIEDFQAEKKKQNVVYTKWLDGVDVKDHDFRKIVDGNIAYYATPLLNGRGFYDINKDFNRDSDKCAAAVAANMFHYWLDRNRDNVDRFLRQNPEKHGIIELPDGQLKLSDFLNTYESDDGYRDKSKLFDFISNNFNGPVWTDKLLDNYINGYAYNYKYGRTIEDPTKNTSKINFFKEVFNEKILTNNHSIRNQNEFSVLLSEALYTGKAIGLSYGPAGTRHSLGHIISVWGADLDADGNVVAIYVTDSDDKKLTIGDERVGLKRYKISTDDEGRLRLTAYEETHNTGGQIRGLWTLDTGKQAWADYFDKTEQTGTDQAEQ
B12: PRT-440 (protein)
chain: MSQTEDSESLQRLRDIEDFQAEKKKQNVVYTKWLDGVDVKDHDFRKIVDGNIAYYATPLLNGRGFYDINKDFNRDSDKCAAAVAANMFHYWLDRNRDNVDRFLRQNPEKHGIIELPDGQLKLSDFLNTYESDDGYRDKSKLFDFISNNFNGPVWTDKLLDNYINGYAYNYKYGRTIEDPTKNTSKINFFKEVFNEKILTNNHSIRNQNELSVLLSEALYTGKAIGLSYGPAGLRHSLGHIISVWGADLDADGNVVAIYVTDSDDKKLTIGDERVGLKRYKISTDDEGRLRLTAYEETHNTGGQIRGLWTLDTGKQAWADYFDKTEQTGTDQAEQ
B13: PRT-564 (protein)
chain: MANQEIRYSEATPSHITSVWTKGVTPPTQFIQNEDVLHAPYIANQGWYDITKTFNGKDDLLCGAATAGNMLHWWFDQNKTQIENYLKKHPEKQKINFNGEQMFDVKEAIDTKDSQTDSALFSYFKDKAFPYLSTKHLGVFPDHVIDMFINGYRLSLTNHGPTPVKRQTKDPRGGIFDAVFTRGDQSKLLTSRHDFKEKTLNEISQLIKQELTEGKALGLSHTYANVRINHVINLWGADFNAEGNLEAIYVTDSDSNASIGMKKYYVGVNAAGKVAISAKEIEGDNIGAQVLGLFTLSTGQDIWQQTNLEHHHHHH

Target: pooled human IgG (human IgG1, 2, 3 and 4)

Protein | Enzyme Activity Endpoint Assay (purified): Fab′2 [ng/µL] | Enzyme Activity Endpoint Assay (purified): Fc [ng/µL] | Enzyme Activity Endpoint Assay (purified): IgG [ng/µL] | Enzyme Activity Endpoint Assay (purified): scIgG [ng/µL] | Enzyme Activity Endpoint Assay (purified): Fab'2 [ng/µL]
B1 | 392 | 295 | 38 | 281 | –
B2 | 492 | 330 | 0 | 324 | –
B3 | 462 | 305 | 0 | 385 | –
B4 | – | 320 | 0 | 249 | 578
B5 | – | 330 | 0 | 259 | 559
B6 | 521 | 310 | 0 | 230 | –
B7 | 572 | 348 | 0 | 242 | –
B8 | – | 338 | 0 | 230 | 566
B9 | – | 303 | 0 | 229 | 574
B10 | – | 305 | 0 | 379 | 445
B11 | – | 310 | 0 | 217 | 514
B12 | – | 328 | 0 | 245 | 575
B13 | 651 | 351 | 0 | 0 | –

— US20250027068
